Assays:
[1] = molecular target: peptide #49 (cyclic EspB peptide, positions 193-207) (Enteropathogenic Escherichia coli (EPEC)); assay: ELISA, plate coated with peptide #49, serially diluted mAb
[2] = molecular target: peptide #50 (cyclic EspB peptide, positions 197-211) (Enteropathogenic Escherichia coli (EPEC)); assay: ELISA, plate coated with peptide #50, serially diluted mAb
[3] = molecular target: peptide #49+50 (combined sequences of peptides #49 and #50) (Enteropathogenic Escherichia coli (EPEC)); assay: ELISA, plate coated with peptide #49+50, serially diluted mAb

Binder: CTSAQKASQVAEEAADAAQEC (modifications not checked) [peptide #49+50 (combined sequences of peptides #49 and #50)]
- IC50 (read off the curve) (mAb-EspB-B7): 2 µg/mL

B1: mAb-EspB-B7 (antibody, V domains shown)
VH: EVQLLESGGGLVQPGGSLRLSCAASGFTFSHYAMNWVRQAPGKGLEWVSAINSNGDSTYYPDTVKDRFTISRDNSKNTLYLQMNSLRAEDTAVYYCARDRRAGYFDYWGQGTLVTVSS
VL: DIVLTQPPSASGTPGQRVTISCSGSRDNIGKNYVSWYQQLPGTAPKLLIYRNNQRPSGVPDRFSGSKSGTSASLAISGLRSEDEADYYCSAWDTSLNAYVFGPGTQLTVL
- EC50 (read off the curve) [1]: 0.5 µg/mL
- EC50 (read off the curve) [2]: 0.5 µg/mL
- EC50 (read off the curve) [3]: 0.3 µg/mL

Reference: US20250277767A1
